Target: T1, AITR6-His (Arabidopsis thaliana, UniProt Q9FGW7 1-302)
T1 sequence: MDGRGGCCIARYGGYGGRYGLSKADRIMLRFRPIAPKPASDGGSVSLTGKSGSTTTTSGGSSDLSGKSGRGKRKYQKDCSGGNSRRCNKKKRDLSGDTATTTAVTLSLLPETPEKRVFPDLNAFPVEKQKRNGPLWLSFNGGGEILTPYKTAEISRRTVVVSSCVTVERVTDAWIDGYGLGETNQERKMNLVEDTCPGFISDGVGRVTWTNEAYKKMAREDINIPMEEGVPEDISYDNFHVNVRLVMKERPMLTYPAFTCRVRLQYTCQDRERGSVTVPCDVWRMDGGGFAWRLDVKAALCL
Assay: EMSA

B1: F16 (dsDNA)
DNA 1: ACTCATAAAATATGTCTTTGATTTTTTGTAGTAAT
DNA 2: ATTACTACAAAAAATCAAAGACATATTTTATGAGT
binding result: no binding
